{"source": "patent US10188739B2", "about": "(Xenetic Biosciences, Inc., priority 2014, dated 2019)", "key": {"[1]": {"parameters": "species or system CD-1 mice", "settings": "mouse, in vivo", "description": "(§1) Male CD-1 mice of 8 to 9 weeks of age (18-20 g body weight) were acclimatized for 7 days before being enrolled into the study. Mice were weighed and dosed at 5 μL of dosing material per 20 g of body weight. […] Animals were anesthetized and held with the dorsal end facing down. Dosing materials were administered at a rate of ˜1 μL/10 seconds split equally through both nostrils. Total dosing time ranged from 1.8 to 2.3 minutes. After a nominal 10 minutes post-dose, animals were sacrificed followed by blood collection, perfusion, and tissue collection. The olfactory bulbs were included in the collection of the brain tissues. All tissues were stored at nominal −80° C. until assay. Perfusate contains: 1×PBS pH 7.4, +2.7% w/v BSA+100 U/mL heparin. […] Read plate at Ex/Em 635/675."}, "[2]": {"parameters": "species or system CD-1 mice", "settings": "mouse, in vivo, 10.5 mg/kg", "description": "as §1, with “heparin. Lung/Liver/Kidney/Spleen. […] To evaluate recovery and matrix differences between the calibration matrices and study test samples, a spiking recovery experiment was performed (Table 2). […] The RFU correction factor was determined by dividing the response of each analyte spiked into BALB-c lysates (preparation procedures described below) by the response of each analyte spiked into CD-1 homogenate and then extracted. For kidney and liver matrices, there was enough material available to evaluate spiking recovery at two different levels.” for “heparin.”, “635/675 4. […]” for “635/675.”"}}, "note": "Read-outs that look alike come from different tables or passages of the source.", "data": [{"substance": "Sialong: polysialyated insulin conjugate by N-terminal (B-chain) aldehyde conjugation using 15 kDa CAO; tested labelled with AF-647 (Sialong^AF647)", "values": [{"measurement": "Plasma % Dose", "setting": "[1]; 2.1 mg/kg", "value": 0.0, "unit": "% Dose"}, {"measurement": "Plasma % Dose", "setting": "[1]; 10.5 mg/kg", "value": 0.01, "unit": "% Dose"}, {"measurement": "Lung % Dose", "setting": "[2]", "value": 0.01, "unit": "% Dose"}]}]}
